± gives the uncertainty stated by the source.
Assay: protein stability index of a GFP-peptide fusion (yeast GPS) (PSI 1-4); higher = more stable; sorted into four equal gates, so the index is relative within each strain
Summary of the method: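 Yeast carrying a pooled library were grown to mid-log phase in leucine-free medium. Each library plasmid expresses Cherry and has a tiled 17-residue yeast protein peptide fused downstream of GFP. Cells were sorted into four equal gates by GFP/Cherry ratio, and plasmids from each gate were PCR-amplified, Illumina-sequenced and assigned to strains by barcode. Summing, across gates, the read frequency times the gate number gave each peptide's protein stability index.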

| Sequence | protein stability index (doa10∆) | protein stability index (pdr5∆) | protein stability index (san1∆) | protein stability index (ubr1∆) |
| --- | --- | --- | --- | --- |
| PPKHTELLLTTLSVSHG [SSN2] | 1.79 ± 0.038 | 1.8 ± 0.038 | 1.55 ± 0.07 | 1.61 ± 0.027 |
| PPPGLDELETKAEKKVE [PRP8] | 3.02 ± 0.06 | 3.21 ± 0.048 | 3.13 ± 0.05 | 3.08 ± 0.049 |
| PPQLANQQQPPQDILSK [SNF11] | 2.26 ± 0.055 | 2.87 ± 0.069 | 2.41 ± 0.065 | 2.69 ± 0.052 |
| PPSVTLQDWQREDEFGS [YDL088C/ASM4] | 3.1 ± 0.11 | 3.31 ± 0.074 | 2.99 ± 0.065 | 3.24 ± 0.054 |
| PQAILAKNSIIDSSNLP [SWI1] | 2.02 ± 0.061 | 2.42 ± 0.061 | 2.32 ± 0.05 | 2.36 ± 0.04 |
| PQGRQSTTFADCPVVPA [RPC40] | 2.89 ± 0.067 | 2.92 ± 0.078 | 2.49 ± 0.1 | 2.87 ± 0.059 |
| PQGSTTNGGLFGSGTQN [YGR119C/NUP57] | 3.12 ± 0.073 | 3.27 ± 0.058 | 3.3 ± 0.042 | 3.015 ± 0.029 |
| PQRLQRKRHQRALKVRN [RPS6A] | 2.96 ± 0.1 | 2.9 ± 0.069 | 2.64 ± 0.096 | 2.87 ± 0.046 |
| PRFNRENKVSPADAAKK [RPS26A] | 3.45 ± 0.18 | 2.73 ± 0.17 | 2.98 ± 0.075 | 2.89 ± 0.12 |
| PRGTAKLIIHRKNDNAN [SMC3] | 1.68 ± 0.29 | 2.34 ± 0.18 | – | 1.95 ± 0.087 |
| PRSPGRSPTRRLELLQL [SMC4] | 1.41 ± 0.27 | 2.12 ± 0.15 | 1.99 ± 0.25 | 1.7 ± 0.13 |
| PRVIEPVYTAQWSATWI [PRP8] | 1.8 ± 0.072 | 2.17 ± 0.054 | 2.08 ± 0.07 | 2.13 ± 0.046 |
| PSENLLNIRIQTYGETT [RPC19] | 1.85 ± 0.27 | 1.18 ± 0.13 | – | 1.33 ± 0.26 |
| PSGAKKVISSDARGVIG [RPL2A] | 2.88 ± 0.072 | 3.13 ± 0.066 | 2.9 ± 0.076 | 3.04 ± 0.077 |
| PSILEDSLENNEGVPSP [FAS1] | 3.29 ± 0.23 | 2.79 ± 0.22 | 3.22 ± 0.17 | 3.14 ± 0.2 |
| PSIVFIDEIDAIGTKRY [RPT2] | – | 2.28 ± 0.14 | 2.14 ± 0.17 | 2.92 ± 0.19 |
| PSLLLQKDQDGRIPLHW [NAS6] | 3.28 ± 0.28 | 3.38 ± 0.21 | – | – |
| PSLRKLIESGIGTHHAG [BRR2] | 3.16 ± 0.19 | 3.38 ± 0.28 | 3.11 ± 0.2 | 3.64 ± 0.13 |
| PSQGVHYKVPTDTSTTA [MED6] | 2.34 ± 0.043 | 2.84 ± 0.046 | 2.37 ± 0.06 | 2.76 ± 0.037 |
| PSSEKPNIRTMSGTTKR [SSN2] | – | 2.45 ± 0.27 | – | – |
| PSSQSQNDTPMFKLGNF [YLR018C/POM34] | 2.54 ± 0.044 | 2.8 ± 0.046 | 2.79 ± 0.036 | 2.6 ± 0.028 |
| PSTGFKFSLPFEQKGSQ [YLR335W/NUP2] | 2.99 ± 0.11 | 2.94 ± 0.088 | 3.07 ± 0.087 | 2.96 ± 0.096 |
| PSYTHVLISKLSCEKIT [RRI1] | 2.18 ± 0.04 | 1.99 ± 0.043 | 2.12 ± 0.047 | 1.98 ± 0.035 |
| PTDDKTLKPTFSFTEPA [YOR098C/NUP1] | 3.14 ± 0.088 | 2.65 ± 0.089 | 2.91 ± 0.072 | 3.07 ± 0.042 |
| PTHYKIPAWFLNRQNDI [RPS18A] | 2.12 ± 0.065 | 2.19 ± 0.062 | 1.8 ± 0.071 | 1.75 ± 0.046 |
| PTIRSNAVLGLGDMAVC [YCS4] | 1.61 ± 0.088 | 1.64 ± 0.069 | 1.67 ± 0.13 | 1.71 ± 0.099 |
| PTQTVAELDLMSGILHC [RPN6] | 2.8 ± 0.06 | 3.07 ± 0.054 | 2.95 ± 0.047 | 3.1 ± 0.051 |

| Sequence | protein stability index (doa10∆) | protein stability index (pdr5∆) | protein stability index (san1∆) | protein stability index (ubr1∆) |
| --- | --- | --- | --- | --- |
| PTSDEPVPESAGKADTS [SRB4] | 2.86 ± 0.085 | 3.07 ± 0.092 | 2.88 ± 0.065 | 3.07 ± 0.045 |
| PTTNEPAKPALSFGTAT [YJL041W/NSP1] | 2.97 ± 0.074 | 3.08 ± 0.063 | 2.96 ± 0.053 | 3.12 ± 0.042 |
| PVGRELDPISLILIPGE [RPN13] | 2.65 ± 0.098 | 2.56 ± 0.05 | 3.13 ± 0.062 | 3.23 ± 0.098 |
| PVIGVFQKFLTGHPKGA [FAS2] | 3.34 ± 0.19 | 2.79 ± 0.16 | 2.57 ± 0.2 | 3.52 ± 0.24 |
| PVLKKKAAFLGSEVRLR [COR1] | 2.91 ± 0.074 | 3.16 ± 0.071 | 2.97 ± 0.07 | 3.3 ± 0.078 |
| PVNSADGKEDVEKGTPL [SME1] | 3.45 ± 0.12 | 3.25 ± 0.21 | 3.52 ± 0.058 | – |
| PVQIVKRITQITIEPGV [RPS20] | 1.74 ± 0.15 | 1.79 ± 0.25 | 1.35 ± 0.21 | 1.65 ± 0.12 |
| PVQSKFGRKKRKGGPAT [RPT2] | 3.47 ± 0.23 | 3.11 ± 0.14 | 2.99 ± 0.095 | 3.22 ± 0.16 |
| PWCVKPEYLAMYGLTME [ITC1] | 2.27 ± 0.065 | 3.03 ± 0.071 | 2.79 ± 0.081 | 2.07 ± 0.073 |
| PWYNNPVSCIIQNDEEY [PRP8] | 1.88 ± 0.13 | 2.05 ± 0.094 | 2.43 ± 0.13 | 1.05 ± 0.12 |
| PYAIIKGKARLGTLVNQ [RPL8B] | 1.83 ± 0.058 | 1.99 ± 0.06 | 1.28 ± 0.063 | 2 ± 0.053 |
| PYLLETYANVLIPCKYL [RPN7] | 1.32 ± 0.067 | 1.43 ± 0.063 | 1.19 ± 0.099 | 1.18 ± 0.062 |
| PYSKNAVEQLAGCKIDN [YDL088C/ASM4] | 2.58 ± 0.089 | 2.6 ± 0.089 | 2.41 ± 0.092 | 2.56 ± 0.047 |
| QAAGGLSIRLTNQLKSL [RPN8] | 2.75 ± 0.085 | 2.57 ± 0.088 | 2.29 ± 0.11 | 2.19 ± 0.06 |
| QALIHGLNRHYYSLNID [RPN11] | 1.98 ± 0.15 | 2.4 ± 0.1 | 2.44 ± 0.068 | 2.42 ± 0.068 |
| QANPTEESISKFPDMGS [RPB5] | 3.23 ± 0.082 | 3.26 ± 0.076 | 3.04 ± 0.074 | 3.26 ± 0.087 |
| QAYEEIISSNENALIEL [YIL149C/MLP2] | 3.18 ± 0.064 | 3.07 ± 0.061 | 2.92 ± 0.071 | 3.23 ± 0.042 |
| QAYQFLNTFGSKICLSH [ITC1] | 2.06 ± 0.076 | 1.33 ± 0.049 | 1.63 ± 0.082 | 1.42 ± 0.054 |
| QDDDFPLDDAGTIGWDL [MCD1] | 3.04 ± 0.08 | 3.25 ± 0.081 | 3.36 ± 0.06 | 3.06 ± 0.068 |
| QDVLQMLGRAGRPRYDT [BRR2] | 3.41 ± 0.21 | 2.56 ± 0.23 | 3.43 ± 0.14 | 2.81 ± 0.28 |
| QEAIQQNRRLAFEELEG [PRP8] | 2.24 ± 0.12 | 2.62 ± 0.28 | 2.74 ± 0.24 | 2.75 ± 0.12 |
| QEDFEVVEEFTPVVLAT [RPS5] | 3.1 ± 0.091 | 2.45 ± 0.059 | 2.3 ± 0.046 | 2.31 ± 0.042 |
| QEGKISSVYRLKFAVQV [RPL26A] | 3.09 ± 0.089 | 3.25 ± 0.11 | 3.1 ± 0.095 | 3.76 ± 0.12 |
| QEGLITTTMLQLFSTFD [SSN2] | 2.58 ± 0.051 | 2.57 ± 0.072 | 2.55 ± 0.056 | 2.61 ± 0.034 |
| QELQIKRDVLDDLYRKL [CSE2] | 2.27 ± 0.14 | 2.19 ± 0.15 | – | – |
| QELRKKVNPNIMNMIEN [SMC2] | 2.45 ± 0.13 | 2.72 ± 0.11 | 2.37 ± 0.13 | 2.47 ± 0.062 |

From the supplement of paper PMC9732359
